Data as given in publication PMC7247208, “A cell suspension based uptake method to study high affinity glucosinolate transporters” (Plant Methods, 2020).

B1: AtGTR1 (Arabidopsis thaliana) (protein)
chain: MKSRVILNHRDRRDKNHNNNNTNHYTQVDTMERKPLEVEPSTTTTNTDVVDSFEEEQRKIVYRGWKVMPFIIGNETFEKLGIIGTLSNLLVYLTSVFNLKSYTAATIINAFSGTINFGTFIAAFLCDTYFGRYKTLSVAVIACFLGSFVILLTAAIPSLHPVACGNKISCEGPSVGQILFLLMGLGFLVVGAGGIRPCNLAFGADQFNPKSESGKKGINSFFNWYFFTFTFAQIISLTAVVYIQSNVSWTIGLIIPVALMFLACVIFFAGDRLYVKVKASGSPLAGIARVIAAAIKKRGLKPVKQPWVNLYNHIPSNYANTTLKYTDQFRFLDKAAIMTPEEKLNSDGTASDPWKLCTLQQVEEVKCIVRVIPIWFASTIYYLAITIQMTYPVFQALQSDRRLGSGGFRIPAATYVVFLMTGMTVFIIFYDRVLVPSLRRVTGLETGISLLQRIGAGFTFAIMSLLVSGFIEERRRNFALTKPTLGMAPRTGEISSMSALWLIPQLTLAGIAEAFAAIGQMEFYYKQFPENMKSFAGSIFYVGAGVSSYLASFLISTVHRTTAHSPSGNWLAEDLNKAKLDYFYFMLTGLMVVNMAYFLLMARWYRYKGGNDEDITEIETNEEETKQQQLQDKNSV
notes: full-length CDS from Col-0 leaf cDNA, untagged, pEarleyGate100 (CaMV35S), stably expressed in cotton CCL-1 cells; C-terminal YFP fusion only for localization
B2: AtGTR2 (Arabidopsis thaliana) (protein)
chain: MERKPLELESTDNHQNPSSAVYGGSVTAVDSVEEDVQNQKKVVYRGWKVMPFIIGNETFEKLGIIGTLSNLLVYLTAVFNLKSITAATIINAFSGTINFGTFVAAFLCDTYFGRYKTLSVAVIACFLGSFVILLTAAVPQLHPAACGTAADSICNGPSGGQIAFLLMGLGFLVVGAGGIRPCNLAFGADQFNPKSESGKRGIDSFFNWYFFTFTFAQILSLTLVVYVQSNVSWTIGLTIPAVLMFLACLIFFAGDKLYVKIKASGSPLAGIAQVIAVAIKKRGLKPAKQPWLNLYNYYPPKYANSKLKYTDQFRFLDKAAILTPEDKLQPDGKPADPWKLCTMQQVEEVKCIVRVLPIWFASSIYYLTITQQMTYPVFQALQSDRRLGSGGFVIPAATYVVFLMTGMTVFIVVYDRVLVPTMRRITGLDTGITLLQRIGTGIFFATASLVVAGFVEERRRTFALTKPTLGMAPRKGEISSMSAMWLIPQLSLAGVAEAFAAIGQMEFYYKQFPENMRSFAGSIFYVGGGVSSYLGSFLIATVHRTTQNSSGGNWLAEDLNKGRLDLFYFMIAGILAVNFAYFLVMSRWYRYKGSDDEVTTYETNENIIKQQDKNVA
notes: as for B1

Assays:
Conditions in all cases: pH 5, MSOT3 without nitrate salts, 1 h uptake, transport
[1] = substrate: O=S(=O)(O)O/N=C(/Cc1ccc(O)cc1)S[C@@H]1O[C@H](CO)[C@@H](O)[C@H](O)[C@H]1O; test: cells, lysate or membranes
[2] = substrate: C=CC/C(=N/OS(=O)(=O)O)S[C@@H]1O[C@H](CO)[C@@H](O)[C@H](O)[C@H]1O; test: uptake into CCL-1 cotton suspension cells, HPLC of desulfoglucosinolates, Michaelis-Menten fit; assay type: cell-based, Arabidopsis thaliana
[3] = substrate: C=CCC/C(=N\OS(=O)(=O)O)S[C@@H]1O[C@H](CO)[C@@H](O)[C@H](O)[C@H]1O; test: as above; assay type: cell-based, Arabidopsis thaliana

| Protein | Km [1] [µM] | Vmax [1] [µmol/min/mg] | Km [2] [µM] | Vmax [2] [µmol/min/mg] | Km [3] [µM] | Vmax [3] [µmol/min/mg] |
| --- | --- | --- | --- | --- | --- | --- |
| B1 | 104.5 ± 56 | 5e-07 | 117.9 ± 44 | 5e-07 | 279.1 ± 109 | 3.4e-06 |
| B2 | 166.7 ± 40 | 1.2e-06 | 436.7 ± 154 | 4.6e-06 | 153.3 ± 59 | 2.9e-06 |
